# In patent US20180258152:
# Where two headings read alike, the source gives them in different places. No end group written: not given here.
# T1: human GIP receptor (GIPR) (human), P48546
# T1 chain: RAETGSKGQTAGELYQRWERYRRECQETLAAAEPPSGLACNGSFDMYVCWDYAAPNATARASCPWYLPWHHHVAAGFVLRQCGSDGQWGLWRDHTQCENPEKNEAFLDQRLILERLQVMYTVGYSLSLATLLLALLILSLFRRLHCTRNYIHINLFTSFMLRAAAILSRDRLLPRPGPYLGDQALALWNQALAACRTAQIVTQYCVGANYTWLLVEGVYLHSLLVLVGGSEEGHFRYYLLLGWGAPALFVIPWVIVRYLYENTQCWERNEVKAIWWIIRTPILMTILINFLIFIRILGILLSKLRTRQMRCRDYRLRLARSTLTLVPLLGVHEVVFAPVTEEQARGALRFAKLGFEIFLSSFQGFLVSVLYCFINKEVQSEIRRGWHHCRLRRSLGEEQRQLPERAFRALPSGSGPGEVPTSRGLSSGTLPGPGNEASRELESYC
# Experiments:
# Conditions in all cases: modification not given
# [1] = biological target: T1, human GIP receptor (GIPR) (human), …
# [2] = biological target: T1, human GIP receptor (GIPR) (human), …; assay: competition
# [3] = biological target: T1, human GIP receptor (GIPR) (human), …; assay: competition
# [4] = biological target: T1, human GIP receptor (GIPR) (human), …; assay: competition
# [5] = biological target: T1, human GIP receptor (GIPR) (human), …; assay: competition, 125I-GIP(1-42)
# [6] = biological target: T1, human GIP receptor (GIPR) (human), …; assay: competition, 125I-GIP(1-30)NH2
# [7] = biological target: T1, human GIP receptor (GIPR) (human), …; assay: competition, 125I-GIP(2-30)NH2
# [8] = biological target: T1, human GIP receptor (GIPR) (human), …; assay: competition, 125I-GIP(3-30)NH2
# [9] = biological target: T1, human GIP receptor (GIPR) (human), …; assay: other, Schild cAMP
# [10] = biological target: T1, human GIP receptor (GIPR) (human), …
# [11] = biological target: T1, human GIP receptor (GIPR) (human), …; assay: competition, 125I-hGIP
binder,measurement,setting,value
EGTFISDYSIAMDKIHQQDFVNWLLAQK [GIP(3-30)NH2],Ki,[1],14.9 nM
same,IC50,[2],4.4 nM
same,IC50,[3],3.4 nM
same,Ki,[3],2.3 nM
same,IC50,[4],0.76 nM
FISDYSIAMDKIHQQDFVNWLLAQK (not fully specified (C-terminus)) [GIP(6-30)NH2],Ki,[5],347 nM
same,IC50,[6],1060 nM
same,IC50,[7],340 nM
same,IC50,[8],370 nM
GTFISDYSIAMDKIHQQDFVNWLLAQK (not fully specified (C-terminus)) [GIP(4-30)NH2],Ki,[5],21.5 nM
SDYSIAMDKIHQQDFVNWLLAQK (not fully specified (C-terminus)) [GIP(8-30)NH2],Ki,[5],79 nM
EGTFISDYSIAMEKIAQQDFVNWLLAQK [hGIP(3-30)D15E H18A],Ki,[9],7.9 nM
AEGTFISDYSIAMDKIHQQDFVNWLLAQK (not fully specified (C-terminus)) [GIP(2-30)NH2],Ki,[5],14.3 nM
same,IC50,[6],26 nM
same,IC50,[7],2.7 nM
same,IC50,[8],7.7 nM
TFISDYSIAMDKIHQQDFVNWLLAQK (not fully specified (C-terminus)) [GIP(5-30)NH2],Ki,[9],15.2 nM
same,Ki,[5],5.9 nM
EGTFISDYSIAMDKIAQQDFVNWLLAQK [hGIP(3-30)H18A],Ki,[9],35 nM
EGTFISDYSIAMDKIHQQDFVNWLLAQK [hGIP(3-30)],Ki,[10],15 nM
same,IC50,[3],16 nM
DYSIAMDKIHQQDFVNWLLAQK (not fully specified (C-terminus)) [GIP(9-30)NH2],Ki,[5],307 nM
EGTFISDYSIAMDAIAQQDFVNWLLAQK [hGIP(3-30)K16A H18A],Ki,[9],15 nM
EGTFISDYSIAMDKIKQQDFVNWLLAQK [hGIP(3-30)H18K],Ki,[9],37 nM
same,IC50,[11],7.8 nM
